For this assay, the system named is IFP1.4. The assay can be described thus: bleaching of fused IFP1.4 in E. coli colonies by blue light. The assay is classed as cell-based. An excerpt: In phototropin, the excited state energy of FMN is consumed to form a covalent bond with a cysteine. To divert this energy into ^1O2 generation, we carried out saturation mutagenesis of the relevant cysteine (Cys426) of the LOV2 domain of Arabidopsis thaliana phototropin 2 (AtPhot2). To screen for optimal ^1O2 production, these site-specific mutants were fused to an infrared fluorescent protein, IFP1.4, which is readily bleached by ^1O2 [21]. Colonies of E. coli expressing the fusion proteins were imaged in the IFP channel (ex 684/em 708 nm) before and after blue light (488 nm) illumination (FIG. 1A). […] The small side chain of the glycine residue may provide space around the cofactor that would allow O2 close apposition to FMN for efficient energy transfer.
[…] was synthesized by overlap extension PCR [48]. Genetic libraries were constructed by saturation and random mutagenesis and DNA shuffling. Mutants were fused to IFP1.4 by overlap extension PCR and cloned into a modified pBAD vector containing the heme oxygenase-1 gene from cyanobacteria. Libraries were expressed in E. coli strain TOP10 and screened by imaging the agar plates with colonies in the IFP channel before and after blue light illumination. Protein purification and spectroscopic characterization experiments were done as described.

“And” between values parts separate entries of the source, which are not always exact repeats. Identical values can stand only once.

B1: C426G (protein)
chain: MERPRAPPSPLNDAESLSERRSLEIFNPSSGKETHGSTSSSSKPPLDGNNKGSSSKWMEFQDSAKITERTAEWGLSAVKPDSGDDGISFKLSSEVERSKNMSRRSSEESTSSESGAFPRVSQELKTALSTLQQTFVVSDATQPHCPIVYASSGFFTMTGYSSKEIVGRNCRFLQGPDTDKNEVAKIRDCVKNGKSYCGRLLNYKKDGTPFWNLLTVTPIKDDQGNTIKFIGMQVEVSKYTEGVNDKALRPNGLSKSLIRYDARQKEKALDSITEVVQTIRHRKSQVQESVSNDTMVKPDSSTTPTPGRQTRQSDEASKSFRTPGRVSTPTGSKLKSSNNRHEDLLRMEPEELMLSTEVIGQRDSWDLSDRERDIRQGIDLATTLERIEKNFVISDPRLPDNPIIFASDSFLELTEYSREEILGRNGRFLQGPETDQATVQKIRDAIRDQREITVQLINYTKSGKKFWNLFHLQPMRDQKGELQYFIGVQLDGSDHVEPLQNRLSERTEMQSSKLVKATATNVDEAVRELPDANTRPEDLWAAHSKPVYPLPHNKESTSWKAIKKIQASGETVGLHHFKPIKPLGSGDTGSVHLVELKGTGELYAMKAMEKTMMLNRNKAHRACIEREIISLLDHPFLPTLYASFQTSTHVCLITDFCPGGELFALLDRQPMKILTEDSARFYAAEVVIGLEYLHCLGIVYRDLKPENILLKKDGHIVLADFDLSFMTTCTPQLIIPAAPSKRRRSKSQPLPTFVAEPSTQSNSFVGTEEYIAPEIITGAGHTSAIDWWALGILLYEMLYGRTPFRGKNRQKTFANILHKDLTFPSSIPVSLVGRQLINTLLNRDPSSRLGSKGGANEIKQHAFFRGINWPLIRGMSPPPLDAPLSIIEKDPNAKDIKWEDDGVLVNSTDLDIDLF
modifications: miniSOG polypeptide
As for B1, the “decrease of IFP fluorescence” value (blue light (488 nm) illumination) was −70%. Under “two colonies, fusion to IFP1.4”, the “IFP1.4 brightness before irradiation” value was 100 and 96. For the same molecule, where the note is “two colonies, irradiation at 480/30 nm”, the “IFP1.4 brightness after irradiation” value was 27 and 28.

The record behind these values is patent US9279769B2, “Proteins that efficiently generate singlet oxygen” (The Regents of the University of California, priority 2010, dated 2016).
